The results in this text go back to US20090143319, “Transcription factor decoy” (AnGesMG, Inc., published 2009).

First the molecules themselves.
B1: SEQ-40 (mixed)
DNA: CCTTGAGGGGATTTCCCCCC
mixed: GGGGGGAAATCCCCUCAAGG
modifications: LNA/RNA marked by bold/italic, positions not recoverable from text
B2: SEQ-49 (dsDNA)
DNA 1: CCTTGAAGGGACTTTCCTCC
DNA 2: GGAGGAAAGTCCCTTCAAGG
modifications: PS (*): C*C*TTGAAGGGACTTTCCT*C*C / 3'-G*G*…*G*A*AAGGA*G*G
B3: SEQ-K (dsDNA)
DNA 1: AGTTGAAGGGATTTCCCTAGGC
DNA 2: GCCTAGGGAAATCCCTTCAACT
B4: SEQ-27 (dsDNA)
DNA 1: GGGGATTTCCCCCC
DNA 2: GGGGGGAAATCCCC
B5: SEQ-23 (dsDNA)
DNA 1: TGAGGGGATTTCCCCC
DNA 2: GGGGGAAATCCCCTCA
B6: SEQ-19 (dsDNA)
DNA 1: CCTTGAGGGGATTTCCCC
DNA 2: GGGGAAATCCCCTCAAGG
B7: SEQ-M (dsDNA)
DNA 1: ACCAAGGGATTTCCCTGTCCCAC
DNA 2: GTGGGACAGGGAAATCCCTTGGT
B8: SEQ-30 (dsDNA)
DNA 1: TGAGGGGATTTCCCCCC
DNA 2: GGGGGGAAATCCCCTCA
B9: SEQ-35 (dsDNA)
DNA 1: GAGGGGATTTCCCC
DNA 2: GGGGAAATCCCCTC
modifications: PS (*): G*A*GGGGATTT*C*CCC / antisense 3'-CTCCC*C*T*AAAG*G*GGG (so in the source)
B10: SEQ-16 (dsDNA)
DNA 1: TGAGGGGATTTCCCC
DNA 2: GGGGAAATCCCCTCA
B11: SEQ-48 (dsDNA)
DNA 1: CCTTGAAGGGACTTTCCTCC
DNA 2: GGAGGAAAGTCCCTTCAAGG
modifications: PS (*): C*C*TTGAAGGGACTTTCCT*C*C / 3'-G*G*AACTTCC*C*T*GAAAGGA*G*G
B12: SEQ-21 (dsDNA)
DNA 1: AGGGGATTTCCCCC
DNA 2: GGGGGAAATCCCCT
B13: SEQ-17 (dsDNA)
DNA 1: TTGAGGGGATTTCCCC
DNA 2: GGGGAAATCCCCTCAA
B14: SEQ-22 (dsDNA)
DNA 1: GAGGGGATTTCCCCC
DNA 2: GGGGGAAATCCCCTC
B15: SEQ-24 (dsDNA)
DNA 1: TTGAGGGGATTTCCCCC
DNA 2: GGGGGAAATCCCCTCAA
B16: SEQ-26 (dsDNA)
DNA 1: CCTTGAGGGGATTTCCCCC
DNA 2: GGGGGAAATCCCCTCAAGG
B17: SEQ-47 (dsDNA)
DNA 1: CCTTGAAGGGACTTTCCTCC
DNA 2: GGAGGAAAGTCCCTTCAAGG
modifications: PS (*): C*C*TTGAAGGGACTTTCCT*C*C / 3'-G*G*AAC*T*T*…*G*G
B18: SEQ-13 (dsDNA)
DNA 1: GGGGATTTCCCC
DNA 2: GGGGAAATCCCC
B19: SEQ-18 (dsDNA)
DNA 1: CTTGAGGGGATTTCCCC
DNA 2: GGGGAAATCCCCTCAAG
B20: SEQ-9 (dsDNA)
DNA 1: CCTTGAGGGGATTTCCCCCC
DNA 2: GGGGGGAAATCCCCTCAAGG
modifications: PS (*): C*C*TTG*A*GGGGATTT*C*CCCCC / antisense 5'-G*G*GGGGAAA*T*C*CCCTCAAGG
B21: SEQ-33 (dsDNA)
DNA 1: GAGGGGATTTCCCC
DNA 2: GGGGAAATCCCCTC
modifications: PS (*): G*A*GGGGATTT*C*CCC / antisense 5'-GGGGAAA*T*C*CCCTC
B22: SEQ-20 (dsDNA)
DNA 1: GGGGATTTCCCCC
DNA 2: GGGGGAAATCCCC
B23: SEQ-15 (dsDNA)
DNA 1: GAGGGGATTTCCCC
DNA 2: GGGGAAATCCCCTC
B24: SEQ-14 (dsDNA)
DNA 1: AGGGGATTTCCCC
DNA 2: GGGGAAATCCCCT
B25: SEQ-46 (dsDNA)
DNA 1: CCTTGAAGGGACTTTCCTCC
DNA 2: GGAGGAAAGTCCCTTCAAGG
modifications: PS at 2 bonds at each end of both strands
B26: SEQ-32 (dsDNA)
DNA 1: CTTGAGGGGATTTCCCCCC
DNA 2: GGGGGGAAATCCCCTCAAG
B27: SEQ-31 (dsDNA)
DNA 1: TTGAGGGGATTTCCCCCC
DNA 2: GGGGGGAAATCCCCTCAA
B28: SEQ-36 (dsDNA)
DNA 1: TTGAGGGGATTTCCCC
DNA 2: GGGGAAATCCCCTCAA
modifications: PS (*): T*TG*A*GGGGATTT*C*CCC / antisense 5'-G*GGGAAA*T*C*CCCTCAA
B29: SEQ-28 (dsDNA)
DNA 1: AGGGGATTTCCCCCC
DNA 2: GGGGGGAAATCCCCT
B30: SEQ-25 (dsDNA)
DNA 1: CTTGAGGGGATTTCCCCC
DNA 2: GGGGGAAATCCCCTCAAG
B31: SEQ-29 (dsDNA)
DNA 1: GAGGGGATTTCCCCCC
DNA 2: GGGGGGAAATCCCCTC
B32: SEQ-L (dsDNA)
DNA 1: CCTTGAGGGGACTTTCCCCC
DNA 2: GGGGGAAAGTCCCCTCAAGG
B33: SEQ-37 (dsDNA)
DNA 1: TTGAGGGGATTTCCCC
DNA 2: GGGGAAATCCCCTCAA
modifications: PS (*): T*T*G*A*GGGGATTT*C*CCC / antisense 5'-G*G*GGAAA*T*C*CCCTCAA
B34: SEQ-34 (dsDNA)
DNA 1: GAGGGGATTTCCCC
DNA 2: GGGGAAATCCCCTC
modifications: PS (*): G*A*GGGGATTT*C*CCC / antisense 5'-G*GGGAAA*T*C*CCCTC
B35: SEQ-38 (dsDNA)
DNA 1: TTGAGGGGATTTCCCC
DNA 2: GGGGAAATCCCCTCAA
modifications: PS (*): TTG*A*GGGGATTT*C*CCC / antisense 5'-GGGGAAA*T*C*CCCTCAA
B36: SEQ-44 (dsDNA)
DNA 1: CCTTGAAGGGATTTCCCTCC
DNA 2: GGAGGGAAATCCCTTCAAGG
modifications: PS (*): C*C*TTGAAGGGATTTCCCT*C*C / 3'-G*G*AA*C*T*…*G*G
B37: SEQ-45 (dsDNA)
DNA 1: CCTTGAAGGGATTTCCCTCC
DNA 2: GGAGGGAAATCCCTTCAAGG
modifications: PS (*): C*C*TTGAAGGGATTTCCCT*C*C / 3'-G*G*…*A*A*GGGA*G*G

T1 sequence (Q04206 whole entry, one chain of several): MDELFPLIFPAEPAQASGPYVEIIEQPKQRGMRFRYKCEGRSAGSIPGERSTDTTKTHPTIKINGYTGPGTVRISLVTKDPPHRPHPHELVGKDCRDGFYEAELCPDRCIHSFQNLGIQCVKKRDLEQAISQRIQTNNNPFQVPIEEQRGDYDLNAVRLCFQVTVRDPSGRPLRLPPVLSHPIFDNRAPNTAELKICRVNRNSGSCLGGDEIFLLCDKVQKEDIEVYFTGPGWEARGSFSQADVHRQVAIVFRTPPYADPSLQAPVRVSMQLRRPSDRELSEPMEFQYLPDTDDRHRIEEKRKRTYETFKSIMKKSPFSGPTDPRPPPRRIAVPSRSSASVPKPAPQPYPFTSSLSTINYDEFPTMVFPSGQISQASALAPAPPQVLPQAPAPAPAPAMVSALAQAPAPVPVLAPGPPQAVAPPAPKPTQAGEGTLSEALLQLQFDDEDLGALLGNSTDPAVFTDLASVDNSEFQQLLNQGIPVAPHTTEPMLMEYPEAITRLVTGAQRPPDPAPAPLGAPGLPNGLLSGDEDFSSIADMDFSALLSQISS

In one data set the target is T1, NF-kB p65 (RelA) (UniProt Q04206 Q04206:1-551). As to the kind of experiment: competition. The following applies: protein: extract; tags: native, Jurkat nuclear extract (TransAM NF-kB p65 kit, Active Motif). The method, then:
(§1) Complete Lysis Buffer, Complete Binding Buffer, 1× Wash Buffer and 1× Antibody Binding Buffer are prepared. […] Jurkat nuclear extract was diluted with Complete Lysis Buffer to a concentration of 125 μg protein/mL.
(§2) To each of the wells in a plate included in the kit, on which a NF-κB-binding nucleic acid is preliminarily immobilized, 30 μL each of the NF-κB Decoy Oligonucleotide Dilution prepared in (1) described above is added. To the wells of the blank and control, 30 μL each of Complete Binding Buffer was added. Then 20 μL each of the above-described Jurkat nuclear extract was added to each well. To each of the wells of the blank and control, 20 μL each of Complete Lysis Buffer was added. After shaking the plate at room temperature for 1 hour, each well was washed with 200 μL of 1× Wash Buffer 3 times, and 100 μL each of rabbit anti-NF-κB p65 antibody 1000-fold diluted with 1× Antibody Binding Buffer was added, followed by shaking the plate at room temperature for 1 hour. Thereafter, each well was washed with 200 μL of 1× Wash Buffer 3 times, and 100 μL each of HRP-labeled anti-rabbit IgG antibody 1000-fold diluted with 1× Antibody Binding Buffer was added to each well, followed by shaking the plate at room temperature for 1 hour. Thereafter, each well was washed with 200 μL each of 1× Wash Buffer 4 times, and 100 μL each of Developing Solution was added, followed by allowing coloring reaction in a dark room for 5 minutes. After the reaction, the coloring reaction was stopped by adding 100 μL each of Stop Solution. […] The percentage of the absorbance of each NF-κB decoy oligonucleotide at each of the concentrations was calculated taking the ratio of absorbances of the well of control as 100, and IC₅₀ of each decoy oligonucleotide was calculated from the approximate curve obtained by plotting the mean values of the above-mentioned percent absorbance.
B1: the binding signal was > 2.93 IC50 ratio to SEQ-x.
The same measure, in the same setting: in the case of B2 it was 0.19 IC50 ratio to SEQ-x; in that of B3, > 1.48 IC50 ratio to SEQ-x.
Take B4: the binding signal is > 2.2 IC50 ratio to SEQ-I.
Regarding B5, the binding signal is 0.69 IC50 ratio to SEQ-I.
The same measure, in the same setting: in the case of B6 it was 0.26 IC50 ratio to SEQ-I; in that of B7, > 1.48 IC50 ratio to SEQ-x.
Same read-out and setting: the same measure for B8: 1.24 IC50 ratio to SEQ-I; for B9: 0.015 IC50 ratio to SEQ-x.
The same measure, in the same setting: the same measure for B10: 0.42 IC50 ratio to SEQ-I.
For the molecule B11, the binding signal was 0.2 IC50 ratio to SEQ-x.
On to B12, for which the binding signal is 2.07 IC50 ratio to SEQ-I.
Regarding B13, the binding signal is 0.3 IC50 ratio to SEQ-I.
On the same count and under the same terms, in the case of B14 it was 1.09 IC50 ratio to SEQ-I.
Same read-out and setting: in the case of B15 it was 0.52 IC50 ratio to SEQ-I.
On the same count and under the same terms, the same measure for B16: 0.43 IC50 ratio to SEQ-I; for B17: 0.72 IC50 ratio to SEQ-x.
Regarding B18, the binding signal is > 2.87 IC50 ratio to SEQ-I.
As to B19, the binding signal is 0.28 IC50 ratio to SEQ-I.
For B20, the binding signal is 0.02 IC50 ratio to SEQ-x.
On the same count and under the same terms, in the case of B21 it was 0.021 IC50 ratio to SEQ-x; in that of B22, > 3.45 IC50 ratio to SEQ-I.
Consider B23, for which the binding signal was 0.61 IC50 ratio to SEQ-I.
The same measure, in the same setting: the same measure for B24: 1.39 IC50 ratio to SEQ-I; for B25: > 1.67 IC50 ratio to SEQ-x.
On the same count and under the same terms, in the case of B26 it was 0.76 IC50 ratio to SEQ-I; in that of B27, 0.84 IC50 ratio to SEQ-I; in that of B28, 0.012 IC50 ratio to SEQ-x.
On to B29, for which the binding signal was > 2.2 IC50 ratio to SEQ-I.
For B30, the binding signal is 0.41 IC50 ratio to SEQ-I.
B31: the binding signal was 2.17 IC50 ratio to SEQ-I.
Same read-out and setting: in the case of B32 it was 0.66 IC50 ratio to SEQ-x; in that of B33, 0.015 IC50 ratio to SEQ-x; in that of B34, 0.014 IC50 ratio to SEQ-x.
Still for that read-out and setting: the same measure for B35: 0.011 IC50 ratio to SEQ-x.

The target in another data set is T1, NF-kB p65 (RelA). As to the kind of experiment: competition; 0.60 relative to SEQ-X-PS (Table 7). The note with it: protein: extract; tags: native, Jurkat nuclear extract (TransAM NF-kB p65 kit, Active Motif). The method, then:
as §1
as §2, with “hour.” for “hour. Thereafter, each well was washed with 200 μL of 1× Wash Buffer 3 times, and 100 μL each of HRP-labeled anti-rabbit IgG antibody 1000-fold diluted with 1× Antibody Binding Buffer was added to each well, followed by shaking the plate at room temperature for 1 hour. Thereafter, each well was washed with 200 μL each of 1× Wash Buffer 4 times, and 100 μL each of Developing Solution was added, followed by allowing coloring reaction in a dark room for 5 minutes. After the reaction, the coloring reaction was stopped by adding 100 μL each of Stop Solution.”
In the case of B36, the binding signal was > 1.67 IC50 ratio to SEQ-x.

Another data set concerns the target T1, NF-kB p65 (RelA). Kind of data set: competition; 0.16 relative to SEQ-X-PS (Table 7). The following applies: protein: extract; tags: native, Jurkat nuclear extract (TransAM NF-kB p65 kit, Active Motif). The method, then: as §1
as §2, with “hour.” for “hour. Thereafter, each well was washed with 200 μL of 1× Wash Buffer 3 times, and 100 μL each of HRP-labeled anti-rabbit IgG antibody 1000-fold diluted with 1× Antibody Binding Buffer was added to each well, followed by shaking the plate at room temperature for 1 hour. Thereafter, each well was washed with 200 μL each of 1× Wash Buffer 4 times, and 100 μL each of Developing Solution was added, followed by allowing coloring reaction in a dark room for 5 minutes. After the reaction, the coloring reaction was stopped by adding 100 μL each of Stop Solution.”
Turning to B37, the binding signal was 1.43 IC50 ratio to SEQ-x.
